Assay results: patent US20060275822

Molecular target: W-SCAT protein (Venus - caspase 3 substrate site - Venus, expressed from pRSETB/W-SCAT in Escherichia coli)

B1: active caspase 3 (CPP32, MBL) (protein)
chain: SGISLDNSYKMDYPEMGLCIIINNKNFHKSTGMTSRSGTDVDAANLRETFRNLKYEVRNKNDLTREEIVELMRDVSKEDHSKRSSFVCVLLSHGEEGIIFGTNGPVDLKKITNFFRGDRCRSLTGKPKLFIIQACRGTELDCGIETDSGVDDDMACHKIPVEADFLYAYSTAPGYYSWRNSKDGSWFIQSLCAMLKQYADKLEFMHILTRVNRKVATEFESFSFDATFHAKKQIPCIVSMLTKELYFYH
Question: For B1, which Fluorescent anisotropy (mA) of W-SCAT after 2 hours at 37 C with 1 unit of active caspase 3, measured with Beacon (control without casp3: 225.8) is on record?
Answer: 276 mA
